# Source: the DeepSol protein solubility set
# Assay: soluble on expression in E. coli; label from the status in PepcDB or PDB records
row,Sequence,soluble on expression in E. coli
1,MYSGVQIRTGSNPKIRRNKIWGGQNGGILVYNSGLGCIEDNEIFDNAMAGVWIKTDSNPTLRRNKIHDGRDGGICIFNGGRGLLEENDIFRNAQAGVLISTNSHPILRKNRIFDGFAAGIEITNHATATLEGNQIFNNRFGGLFLASGVNVTMKDNKIMNNQDAIEKAVSRGQCLYKISSYTSYPMHDFYRCHTCNTTDRNAICVNCIKKCHQGHDVEFIRHDRFFCDCGAGTLSNPCTLAGEPTHDTDTLYDSAPPIESNTLQHN,soluble
2,MAAVILESIFLKRSQQKKKTSPLNFKKRLFLLTVHKLSYYEYDFERGRRGSKKGSIDVEKITCVETVVPEKNPPPERQIPRRGEESSEMEQISIIERFPYPFQVVYDEGPLYVFSPTEELRKRWIHQLKNVIRYNSDLVQKYHPCFWIDGQYLCCSQTAKNAMGCQILENRNGSLKPGSSHRKTKKPLPPTPEEDQILKKPLPPEPAAAPVSTSELKKVVALYDYMPMNANDLQLRKGDEYFILEESNLPWWRARDKNGQEGYIPSNYVTEAEDSIEMYEWYSKHMTRSQAEQLLKQEGKEGGFIVRDSSKAGKYTVSVFAKSTGDPQGVIRHYVVCSTPQSQYYLAEKHLFSTIPELINYHQHNSAGLISRLKYPVSQQNKNAPSTAGLGYGSWEIDPKDLTFLKELGTGQFGVVKYGKWRGQYDVAIKMIKEGSMSEDEFIEEAKVMMNLSHEKLVQLYGVCTKQRPIFIITEYMANGCLLNYLREMRHRFQTQQLLEMCKDVCEAMEYLESKQFLHRDLAARNCLVNDQGVVKVSDFGLSRYVLDDEYTSSVGSKFPVRWSPPEVLMYSKFSSKSDIWAFGVLMWEIYSLGKMPYERFTNSETAEHIAQGLRLYRPHLASEKVYTIMYSCWHEKADERPTFKILLSNILDVMDEES,soluble
3,MSKLQGKKITPMPISAGITVVDLINEYFTAYNSARLREACKLLSQDIFQAGVTVGVSLSGAMTPAGFGVSALAPLIRHGFIDWMISTGANLYHDVHYALGFELFAGSPFLDDVKLREEGTIRIYDIIFGYDVLLETDAFIRKVLQAEPFQKRMGTAEFHYLLGKYVREVEKQLGVQHSCLLATAYEYGVPIYTSSPGDSSIGMNVAALALEGSRLVLDPAIDVNETSAIAYGARETDGKSAAVILGGGSPKNFLLQTQPQIHEVLGLEERGHNFFVQFTDARPDTGGLSGATPAEAVSWGKIDPDELPSTIVCYTDSTIAIPLVTAYVLNQCQARPVKRLYDRREALLETLQKDYLAAKDKPVVKEEGTEEVPSYRCGTPIKR,not soluble
4,MGSDKIHHHHHHMSPSIYPKSNYPDAAILSRLAQQIKGWGKALGFARVGICDTDLTSEEIKLQTWLDKGYHGEMAYMASHGMMRARPQELHPGTVRVISVRMDYLPPEAGFATNLTDPNLGYISRYAGGRDYHKLIRARLKKLGDHISAELIALGFDAADFRPFVDSAPVLERPLAEKAGIGWTGKHSLILNHDSGSWFFLGELFINLPLPVDIPIQEACNTCVACMTSCPTGAIVEPYVVDGRRCISYLTIELQGAIPEEFRPLMGNRIYGCDDCQLVCPINRQAPLTTEIDFHIRPQLKQPDLLSLFAWSEAEFLKQTEGSAIRRIGHKRWLRNIAVALGNAPANPIILEALTNRQESADVDEMVLEHIQWAIDAQQSRLAASNTLVQQKSRRQTARMVRIIEKGLPRDA,not soluble
5,MRYFINIYVFRIKKILVLSVVNHISMDNPFSKFTNSRTIQADLSLLEENYIPDSFPHREKQINDMVTILSSIMRNSRPSNIIVYGKTGTGKTSTTKYVTRMLQEATSNVEVIYVNCEIYDSPYSILVYVANFAGGEKIPELGWPVDRIYREAVDRINGTGKFFVIVLDEMDRLIKKSGGDSLYVLLKLMTDVENVKVSMIGITNDTTLLENLDSRIKSRLNQESIVFPPYNATEIRDIIASRLEKVFGPGVVDDTAINLCAAIGAQEHGDARKAIDLMRIAIEIAIRENRLKVTEKEVYEARDKYEMNVMHEAINTLPIHSKIVLLSAIVTQEIEPNSVITGEIYENYRRICEDLGFTPLTPRRISDLLTELSDYGLIVVDERNMGKYGRTRGFSVVKEIETIKKYLMEDENLSMFKTSKMTKQARFDS,not soluble
6,SIDKNFWQGKRVFVTGHTGFKGSWLSLWLTEMGAIVKGYALDAPTVPSLFEIVRLNDLMESHIGDIRDFEKLRSSIAEFKPEIVFHMAAQPLVRLSYEQPIKTYSTNVMGTVHLLETVKQVGNIKAVVNITSDKCYDNREWVWGYRENEPMGGYDPYSNSKGCAELVASAFRNSFFNPANYEQHGVGLASVRAGNVIGGGDWAKDRLIPDILRSFENNQQVIIRNPYSIRPWQHVLEPLSGYIVVAQRLYTEGAKFSEGWNFGPRDEDAKTVEFIVDKMVTLWGDDASWLLDGENHPHEAHYLKLDCSKANMQLGWHPRWGLTETLSRIVKWHKAWIRGEDMLICSKREISDYMSATTR,soluble
